Consider 13 substances from publication PMC3902906.

The target in data set [1] is CsoR (CsoRSl) wild type (Streptomyces lividans 1326) (UniProt D6EK73). Description: ITC. The following applies: ITC: 10 mM HEPES, 150 mM NaCl, pH 7.5, 25 C, 100 uM DNA into 10 uM CsoR tetramer, EMSA: same buffer, room temperature, 30 min, 6% PAGE in TBE, SEC: same buffer. A general note: Mobility shift assays separate free from complexed probe on a gel.
The target in data set [2] is CsoR^Sl R132A (copper sensitive operon repressor from Streptomyces lividans, R132A mutant) (Streptomyces lividans 1326). As to the kind of experiment: SEC; analytical gel filtration column, retention volume of the purified mutant protein alone; data not shown. In general terms: Size exclusion chromatography separates by hydrodynamic size, large species first.
Data set [3] concerns the target CsoR^Sl R129A (copper sensitive operon repressor from Streptomyces lividans, R129A mutant) (Streptomyces lividans 1326). Described as above.
Data set [4] deals with CsoR^Sl R54A (copper sensitive operon repressor from Streptomyces lividans, R54A mutant) (Streptomyces lividans 1326). The description is as above.
In data set [5] the target is CsoR^Sl Q81A (copper sensitive operon repressor from Streptomyces lividans, Q81A mutant) (Streptomyces lividans 1326). Described as above.
Data set [6] addresses CsoR^Sl R57A (copper sensitive operon repressor from Streptomyces lividans, R57A mutant) (Streptomyces lividans 1326). The data set is described as above.

Take “TACCCCCTAGGGGTAT (double strand) [copZA1-CON]”: the Kd (usually a measure of binding affinity in units of concentration) in data set [1] was determined as 971 nM. Substance “TATACCCCCTAGGGGTA (double strand) [copZA2-CON]” returned a Kd in data set [1] of 107 nM. For the substance “CsoR^Sl R132A (copper sensitive operon repressor from Streptomyces lividans, R132A mutant) (natural protein)”, in data set [2], the stoichiometry N (usually a count of units in the complex or per binding partner) is 4. In data set [3], “CsoR^Sl R129A (copper sensitive operon repressor from Streptomyces lividans, R129A mutant) (natural protein)” gave a stoichiometry N of 4. As for “GCCTTTATACCCCCTAGGGGTAAGGTGGG (double strand) [copZA2-EXT]”, in data set [1], the Kd was determined as 57 nM.

For “CsoR^Sl R54A (copper sensitive operon repressor from Streptomyces lividans, R54A mutant) (natural protein)”, the stoichiometry N in data set [4] stood at 4. On to “CGTTGGGTACCCCCTAGGGGTATATATGG (double strand) [copZA1-GTA down]”, for which the Kd in data set [1] came to 87 nM.

As to “ATACCCCTGGTGGGTATAT (double strand) [csoR-CON]”, the Kd in data set [1] is 120 nM. With “CsoR^Sl Q81A (copper sensitive operon repressor from Streptomyces lividans, Q81A mutant) (natural protein)”, in data set [5], the stoichiometry N is 4.

On to “CGTTGGATACCCCCTAGGGGTATACATGG (double strand) [copZA1-GTA up]”, for which the Kd in data set [1] came to 96 nM. “CsoR^Sl R57A (copper sensitive operon repressor from Streptomyces lividans, R57A mutant) (natural protein)” displayed a stoichiometry N in data set [6] of 4. In data set [1] (apo, reverse titration (protein into DNA), N 0.86), “CGTTGGGTACCCCCTAGGGGTATACATGG (double strand) [copZA1-EXT]” gave a Kd of 112 nM. In data set [1], “CGGACAAATACCCCTGGTGGGTATATATGG (double strand) [csoR-EXT]” gave a Kd of 74 nM.
